Results: patent US20220193237A1 (Bristol-Myers Squibb, published 2022)
Where a chain is given by its changes, count along the chain named. Names and notes keep the numbering of the source. Each block holds one binder with its values, some of them ahead of it.

What was measured:
[1] = target: T1, human CTLA-4 on 58 α-β-CTLA-4/CD3 ζ cells (human; mouse (mCD3ζ)); test: flow cytometry (GMFI), full-length IgG on 58 α-β-CTLA-4/CD3 ζ cells, pH 6.3
T1 construct: also called 58αβ-hCTLA4/mCD3ζ cells; 58αβ-CTLA4/mCD3ζ cells

[2] = target: T1, human CTLA-4 on 58 α-β-CTLA-4/CD3 ζ …; test: flow cytometry (GMFI), full-length IgG on 58 α-β-CTLA-4/CD3 ζ cells, pH 6.6
monomeric cyno CTLA-4 = target: T2, monomeric cyno CTLA-4 (cynomolgus macaque (Macaca fascicularis), UniProt G7PL88 36-161); test: SPR, Fab, monomeric cyno CTLA-4 as analyte; KD (M, log axis 10^-9 to 10^-5) plotted against pH
T2 construct: also called CTLA-4 from the cynomolgus macaque Macaca fascicularis
T2 sequence: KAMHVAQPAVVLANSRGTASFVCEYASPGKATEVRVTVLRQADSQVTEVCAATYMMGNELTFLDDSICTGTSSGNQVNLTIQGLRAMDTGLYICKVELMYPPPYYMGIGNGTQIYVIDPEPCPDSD
Method: The pH dependence of binding of selected antibodies of the present invention to human CTLA-4 and cyno CTLA-4 was measured by surface plasmon resonance (SPR) spectroscopy, essentially as described in Example 3. Briefly, antibodies were studied as monovalent Fab fragments. Anti-human kappa polyclonal capture antibody (Southern Biotech, Ala. USA) was immobilized on a ethylenediamine-blocked CM4 sensor chip in a Biacore T200 surface plasmon resonance system. Fab fragments of selected antibodies of the present invention were then captured on one flow cell each. […] Running buffer was 20 mM BisTris, 150 mM NaCl, 0.05% Tween-20, 1 g/L BSA, at a pH ranging from 5.5 to 7.4 in 0.1-0.2 pH unit intervals (12 total). The surface was regenerated with 1/200 H₃PO₄ between cycles. […] Where required, the Rₘₐₓ was fixed by calculating expected binding based on capture level and apparent activity from other fits for the same Fab.

monomeric human CTLA-4 [3] = target: T3, monomeric human CTLA-4 (human, UniProt P16410 36-161, limits assumed); test: SPR, pH 6.0 and pH 7.5 (FIG. 6)
T3 construct: Soluble monomeric analyte in SPR; also called huCTLA-4
T3 sequence: T2 sequence with N14S, T18I, M106L
Method: (§1) Unless otherwise indicated, experiments were performed with a BIACORE® SPR surface plasmon resonance spectrometer (Biacore AB, Uppsala, Sweden). Antibodies were tested as monovalent Fab fragments to simplify analysis.
(§2) Monomeric human CTLA-4 was flowed as analyte with up to 2 μM top concentration. Between cycles, the capture surface was regenerated with 75 mM phosphoric acid. Experiments were run on a BIACORE® T200 instrument at 37° C. Running buffers were HEPES buffered saline for pH 7.4 experiments and Bis-Tris buffered saline for lower pH experiments. […] Double referenced sensorgrams were fitted to a 1:1 Langmuir binding model with mass transport to determine equilibrium dissociation constants (KD), as well as association (kₐ) and dissociation (kd) rate constants where appropriate.

monomeric human CTLA-4 [4] = target: T3, monomeric human CTLA-4; test: SPR, captured Fab, pH 6.0
Method: (§3) Binding of selected variants to human CTLA-4 was determined essentially as described in Example 3. […] Nomenclature and sequences for these antibodies is provided at Tables 6 and 7, and in the sequence listing as summarized at Table 8.
as §2

monomeric human CTLA-4 [5] = target: T3, monomeric human CTLA-4; test: SPR, captured Fab, pH 6.0 vs 7.4
Method: as §3, §2

monomeric human CTLA-4 [6] = target: T3, monomeric human CTLA-4; test: SPR, captured Fab, pH 7.4
Method: as §3, §2

monomeric human CTLA-4 [7] = target: T3, monomeric human CTLA-4; test: SPR, captured Fab, pH 6.0 vs 7.4; remark: listed apart in the source
Method: as §1, §2

monomeric human CTLA-4 [8] = target: T3, monomeric human CTLA-4; test: SPR, captured Fab, pH 7.4; remark: listed apart in the source
Method: as §1, §2

monomeric human CTLA-4 [9] = target: T3, monomeric human CTLA-4; test: SPR, captured Fab, pH 6.0; remark: listed apart in the source
Method: as §1, §2

monomeric human CTLA-4 [10] = target: T3, monomeric human CTLA-4; test: SPR, captured Fab, pH 7.4; remark: listed apart in the source
Method: (§4) See Example 3. Antibodies were tested as monovalent Fab fragments to simplify analysis.
as §2

monomeric human CTLA-4 [11] = target: T3, monomeric human CTLA-4; test: SPR, captured Fab, first experiment of Table 3
Method: as §4, §2

monomeric human CTLA-4 [12] = target: T3, monomeric human CTLA-4; test: SPR, captured Fab, pH 7.4, second experiment
Method: as §4, §2

monomeric human CTLA-4 [13] = target: T3, monomeric human CTLA-4; test: SPR, captured Fab, pH 6.0, second experiment
Method: as §4, §2

monomeric human CTLA-4 [14] = target: T3, monomeric human CTLA-4; test: SPR, captured Fab, pH 6.0; remark: listed apart in the source
Method: as §4, §2

monomeric human CTLA-4 [15] = target: T3, monomeric human CTLA-4; test: SPR, captured Fab, pH 6.0 vs 7.4, second experiment
Method: as §4, §2

monomeric human CTLA-4 [16] = target: T3, monomeric human CTLA-4; test: SPR, captured Fab, second experiment of Table 3
Method: as §4, §2

monomeric human CTLA-4 [17] = target: T3, monomeric human CTLA-4; test: SPR, captured Fab, pH 6.0 vs 7.4; remark: listed apart in the source
Method: as §4, §2

- EC50 (read off the curve) [1]: ~1 nM
- EC50 (read off the curve) [2]: ~1 nM
B1: ipi.95 (full-length IgG) (antibody, V domains shown)
VH: QVQLVESGGGVVQPGRSLRLSCAASGFTFSHYTMHWVRQAPGKGLEWVTFISYDGHNKYYADSVKGRFTISRDNSKNTLYLQMNSLRAEDTAIYYCARTGWLGPFDYWGQGTLVTVSS
VL: EIVLTQSPGTLSLSPGERATLSCRASQEVGDSELAWYQQKPGQAPRLLIYGAFSRATGIPDRFSGSGSGTDFTLTISRLEPEDFAVYYCQQYGSSPWTFGQGTKVEIKR
notes: Full-length bivalent IgG (human IgG1); heavy chain entry is without the C-terminal lysine

- binding result (monomeric cyno CTLA-4): binds
- CAPBP (ratio of KD normalized to ipilimumab) (monomeric human CTLA-4 [3]): 27.2
- Kd (monomeric human CTLA-4 [4]): 2.7 nM
- kon (monomeric human CTLA-4 [4]): 1.4e+06 M⁻¹ s⁻¹
- t1/2 (monomeric human CTLA-4 [4]): 182 s
- KD 7.4/6 (APBP) (monomeric human CTLA-4 [5]): 13
- ka 6/7.4 (monomeric human CTLA-4 [5]): 1.8
- t1/2 6/7.4 (monomeric human CTLA-4 [5]): 7.6
- Kd (monomeric human CTLA-4 [6]): 37 nM
- kon (monomeric human CTLA-4 [6]): 780000 M⁻¹ s⁻¹
- t1/2 (monomeric human CTLA-4 [6]): 25 s
B2: ipi.64 Fab (Fab, V domains shown)
VH: B1 VH with H56N
VL: not shown
notes: Tested as monovalent Fab; also called IPI.64 mutant fab; LCDR1 S28E/S31D and HCDR1 S31H

- KD 7.4/6 (APBP) (monomeric human CTLA-4 [7]): 1.2
- Kd (monomeric human CTLA-4 [4]): 7.7 nM
- kon (monomeric human CTLA-4 [4]): 960000 M⁻¹ s⁻¹
- t1/2 (monomeric human CTLA-4 [4]): 94 s
- Kd (monomeric human CTLA-4 [8]): 17 nM
- koff (monomeric human CTLA-4 [8]): 0.011 s⁻¹
- kon (monomeric human CTLA-4 [8]): 650000 M⁻¹ s⁻¹
- KD 7.4/6 (APBP) (monomeric human CTLA-4 [5]): 1.1
- ka 6/7.4 (monomeric human CTLA-4 [5]): 1.1
- t1/2 6/7.4 (monomeric human CTLA-4 [5]): 1
- Kd (monomeric human CTLA-4 [6]): 8.6 nM
- kon (monomeric human CTLA-4 [6]): 840000 M⁻¹ s⁻¹
- t1/2 (monomeric human CTLA-4 [6]): 96 s
- Kd (monomeric human CTLA-4 [9]): 20 nM
- koff (monomeric human CTLA-4 [9]): 0.011 s⁻¹
- kon (monomeric human CTLA-4 [9]): 560000 M⁻¹ s⁻¹
B3: ipi.1 Fab (Fab, V domains shown)
VH: B1 VH with H31S, T33H, H56N
VL: not shown
notes: Tested as monovalent Fab; also called T33H (Kabat)

- Kd (monomeric human CTLA-4 [10]): 25 nM
- koff (monomeric human CTLA-4 [10]): 0.018 s⁻¹
- kon (monomeric human CTLA-4 [10]): 720000 M⁻¹ s⁻¹
- ratio of KD (7.4/6.0) normalized to the ratio of ipilimumab (monomeric human CTLA-4 [11]): 4
- CAPBP (ratio of KD normalized to ipilimumab) (monomeric human CTLA-4 [3]): 6.3
- Kd (monomeric human CTLA-4 [4]): 6.2 nM
- kon (monomeric human CTLA-4 [4]): 1.2e+06 M⁻¹ s⁻¹
- t1/2 (monomeric human CTLA-4 [4]): 90 s
- Kd (monomeric human CTLA-4 [12]): 37 nM
- koff (monomeric human CTLA-4 [12]): 0.017 s⁻¹
- kon (monomeric human CTLA-4 [12]): 460000 M⁻¹ s⁻¹
- Kd (monomeric human CTLA-4 [13]): 7.4 nM
- koff (monomeric human CTLA-4 [13]): 0.0074 s⁻¹
- kon (monomeric human CTLA-4 [13]): 1e+06 M⁻¹ s⁻¹
- KD 7.4/6 (APBP) (monomeric human CTLA-4 [5]): 4.1
- ka 6/7.4 (monomeric human CTLA-4 [5]): 1.7
- t1/2 6/7.4 (monomeric human CTLA-4 [5]): 2.4
- Kd (monomeric human CTLA-4 [14]): 6.2 nM
- koff (monomeric human CTLA-4 [14]): 0.0077 s⁻¹
- kon (monomeric human CTLA-4 [14]): 1.2e+06 M⁻¹ s⁻¹
- KD 7.4/6 (APBP) (monomeric human CTLA-4 [15]): 5
- ka 6/7.4 (monomeric human CTLA-4 [15]): 2.2
- kd 7.4/6 (monomeric human CTLA-4 [15]): 2.3
- Kd (monomeric human CTLA-4 [6]): 25 nM
- kon (monomeric human CTLA-4 [6]): 720000 M⁻¹ s⁻¹
- t1/2 (monomeric human CTLA-4 [6]): 39 s
- ratio of KD (7.4/6.0) normalized to the ratio of ipilimumab (monomeric human CTLA-4 [16]): 6.3
- KD 7.4/6 (APBP) (monomeric human CTLA-4 [17]): 4
- ka 6/7.4 (monomeric human CTLA-4 [17]): 1.7
- kd 7.4/6 (monomeric human CTLA-4 [17]): 2.3
B4: ipi.25 Fab (Fab, V domains shown)
VH: B1 VH with H31S, H56N
VL: not shown
notes: Tested as monovalent Fab; also called LCDR1 S28E/S31D; LCDR1 S27aE/S30D (Kabat)
